Test results reported in article PMC6959593.

Tests used:
[1] = target: VEGFR-2 of HUVECs (human (endogenous in HUVECs)) (UniProt P35968)
[2] = target: VEGFR-2 of HUVECs (human (endogenous in HUVECs)) (UniProt P35968); remark: listed apart in the source
[3] = target: VEGFR-2 of HUVECs (human (endogenous in HUVECs)) (UniProt P35968); experiment: proximity ligation; Duolink in situ PLA on HUVECs treated with VEGF/CaD for 2 min, fixed in paraformaldehyde and permeabilized; goat anti-VEGF and rabbit anti-VEGFR2 antibodies overnight at 4°C; dots per cell counted with ImageJ

Sequence of UniProt P35968 (P35968 20-1356): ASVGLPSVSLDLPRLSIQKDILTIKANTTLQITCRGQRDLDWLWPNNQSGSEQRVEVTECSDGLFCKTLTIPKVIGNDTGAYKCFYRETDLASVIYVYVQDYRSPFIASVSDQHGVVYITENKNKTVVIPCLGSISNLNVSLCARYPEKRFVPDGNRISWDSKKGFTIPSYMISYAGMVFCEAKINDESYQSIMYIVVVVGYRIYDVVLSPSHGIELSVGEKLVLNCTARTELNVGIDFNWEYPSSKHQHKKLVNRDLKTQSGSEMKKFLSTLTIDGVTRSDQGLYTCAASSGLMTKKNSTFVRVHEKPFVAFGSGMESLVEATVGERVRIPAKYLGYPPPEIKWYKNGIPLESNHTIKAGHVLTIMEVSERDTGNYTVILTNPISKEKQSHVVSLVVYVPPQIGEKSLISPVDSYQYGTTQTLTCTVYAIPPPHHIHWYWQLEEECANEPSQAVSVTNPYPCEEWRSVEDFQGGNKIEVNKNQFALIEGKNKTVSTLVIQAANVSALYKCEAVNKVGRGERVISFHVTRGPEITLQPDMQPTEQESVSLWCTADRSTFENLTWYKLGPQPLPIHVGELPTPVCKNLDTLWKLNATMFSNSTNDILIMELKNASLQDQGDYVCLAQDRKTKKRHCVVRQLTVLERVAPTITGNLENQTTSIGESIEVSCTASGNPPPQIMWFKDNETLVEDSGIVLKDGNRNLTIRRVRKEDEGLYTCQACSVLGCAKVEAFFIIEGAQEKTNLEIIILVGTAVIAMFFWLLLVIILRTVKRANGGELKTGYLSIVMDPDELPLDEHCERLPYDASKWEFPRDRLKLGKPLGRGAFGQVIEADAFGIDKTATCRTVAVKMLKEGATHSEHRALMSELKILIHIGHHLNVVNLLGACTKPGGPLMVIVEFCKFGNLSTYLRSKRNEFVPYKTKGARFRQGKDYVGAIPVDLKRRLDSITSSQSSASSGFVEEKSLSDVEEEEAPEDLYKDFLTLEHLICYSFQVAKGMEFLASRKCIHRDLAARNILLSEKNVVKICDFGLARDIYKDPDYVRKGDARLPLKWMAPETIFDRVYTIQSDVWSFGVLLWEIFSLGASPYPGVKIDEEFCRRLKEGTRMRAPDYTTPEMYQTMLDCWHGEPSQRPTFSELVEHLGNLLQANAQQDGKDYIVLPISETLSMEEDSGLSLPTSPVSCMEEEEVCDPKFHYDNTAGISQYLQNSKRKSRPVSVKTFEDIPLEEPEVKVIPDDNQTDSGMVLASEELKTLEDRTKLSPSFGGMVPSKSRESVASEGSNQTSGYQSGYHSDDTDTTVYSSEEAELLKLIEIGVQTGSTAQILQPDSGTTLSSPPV

VEGF165 (25 ng/mL)-induced phosphorylation of VEGFR-2 in HUVECs (Western blot, 2 min), VEGF165 premixed with CaD (6-100 μM) for 60 min [1]: < 50% | VEGF165 (25 ng/ml)-induced phosphorylation of VEGFR-2 in heparanase (HPSE, 0.5 μg/ml)-treated HUVECs, with CaD (100 μM), relative to VEGF alone (Western blot) [2]: 50% | decrease of the PLA signal in the presence of CaD [3]: 60%
Substance: recombinant VEGF165 (ligand)
